US20220389089A1 (SURFACE ONCOLOGY, published 2022)

Biological target: T1, IL-27RA on NCI-H2228 lung cancer cells (human, UniProt Q6UWB1 33-636)
T1 sequence: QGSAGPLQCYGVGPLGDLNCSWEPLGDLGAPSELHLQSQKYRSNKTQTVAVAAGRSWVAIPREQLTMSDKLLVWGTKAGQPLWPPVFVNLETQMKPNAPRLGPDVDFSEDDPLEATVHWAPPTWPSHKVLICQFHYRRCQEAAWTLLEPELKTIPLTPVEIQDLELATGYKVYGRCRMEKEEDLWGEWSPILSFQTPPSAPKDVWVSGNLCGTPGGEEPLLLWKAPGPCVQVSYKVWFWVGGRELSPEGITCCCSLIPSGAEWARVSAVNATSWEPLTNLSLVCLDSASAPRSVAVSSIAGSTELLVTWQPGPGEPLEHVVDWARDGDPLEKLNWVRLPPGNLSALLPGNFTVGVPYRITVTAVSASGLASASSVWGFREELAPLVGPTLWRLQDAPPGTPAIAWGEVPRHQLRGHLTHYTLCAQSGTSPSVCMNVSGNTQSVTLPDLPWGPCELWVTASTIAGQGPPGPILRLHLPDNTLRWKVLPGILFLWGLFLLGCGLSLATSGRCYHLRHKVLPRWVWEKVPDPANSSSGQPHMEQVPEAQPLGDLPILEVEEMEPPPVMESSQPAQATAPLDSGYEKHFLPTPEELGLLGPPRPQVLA
Experiment: cell-based or functional assay

EC50 of STAT1 phosphorylation (pSTAT1-PE GeoMean, flow cytometry) in NCI-H2228 lung cancer cells cultured with graded concentrations of IL-27: 5.3 ng/mL
B1: recombinant human IL-27 (ligand)
chain 1: RKGPPAALTLPRVQCRASRYPIAVDCSWTLPPAPNSTSPVSFIATYRLGMAARGHSWPCLQQTPTSTSCTITDVQLFSMAPYVLNVTAVHPWGSSSSFVPFITEHIIKPDPPEGVRLSPLAERQLQVQWEPPGSWPFPEIFSLKYWIRYKRQGAARFHRVGPIEATSFILRAVRPRARYYVQVAAQDLTDYGELSDWSLPATATMSLGK
chain 2: FPRPPGRPQLSLQELRREFTVSLHLARKLLSEVRGQAHRFAESHLPGVNLYLLPLGEQLPDVSLTFQAWRRLSDPERLCFISTTLQPFHALLGGLGTQGRWTNMERMQLWAMRLDLRDLQRHLRFQVLAAGFNLPEEEEEEEEEEEEERKGLLPGALGSALQGPAQVSWPQLLSTYRLLHSLELVLSRAVRELLLLSKAGHSVWPLGFPTLSPQP
